The text below walks through data of the RNAGym collection of RNA variant scans (doi:10.7554/elife.80360).

B1: HDV Ribozyme (parent)
chain: GGCCGGCAUGGUCCCAGCCUCCUCGCUGGCGCCGGCUGGGCAACAUUCCGAGGGGACCGUCCCCUCGGUAAUGGCGAAUGGGACCCA

In this data set the parent is B1. The data set can be described thus: self-cleavage, relative activity (ratio to wild type); higher = more cleavage; co-transcriptional.
As to GGCCGGCAUGGUCCCAGCCUCCUCGCUGGCGCCGGCUGGGCAACAUUCCGAGGGGACCGUCCCCUCGACAAUGGCGAAUGGGACCCA, the self-cleavage was determined as 0.782.
Next, CGCCGGCAUGGUCCCAGCCUCCUCGCUGGCGCCGGCUGGGCAACAUUCCGAGGGGACCGUCCCCUCGGUAAUGUCGAAUGGGACCCA: 0.133; GGCCGGCAUGGUCCCAGCCUCCUCGCUGUCGCCGGCUGGGCAACAUUCCGAGGGGACCGUCCCCUCGGUAAUGGCGAAUGGGAACCA: 0.117; GGCCGGCAUGGACCCAGCCUCCUCGCUGGCGCCGGCUGGGCAACAUUCCGAGGGGACCGUACCCUCGGUAAUGGCGAAUGGGACCCA: 0.443.
Next, GGCCGGCAUGGUCCCAGCCUCCUCGCUGGCGCCGGCUGGACAACAUUCCGAGGGGACCGUCCCCUCGGUAAUGGAGAAUGGGACCCA: 0.0831; GGCCGGCAUGGUCCCAGCCCCCUCGCUGGCGCCGGCUGGGCAACAUUCCGAGGGGACCGGCCCCUCGGUAAUGGCGAAUGGGACCCA: 0.199.
Next, GGCCGGCAUGGUCCCAGCCUCCUCGCUGGCGCCGGCUGGGCAACAUUCCGAGGGGGCCGUCCCCUCGGUAAUGCCGAAUGGGACCCA: 0.125; GGCCGGCAUGGUCCCAGCCACCUCGCUGGCGCCGGCUGGGCAACAUUCCGAGGGAACCGUCCCCUCGGUAAUGGCGAAUGGGACCCA: 0.0959.
As for GGCCGGCAUGGUCCCAGGCUCCUCGCUGGCGCCGGCUGGGCAACGUUCCGAGGGGACCGUCCCCUCGGUAAUGGCGAAUGGGACCCA, the self-cleavage came out at 0.0639.
As for GGCCGGCAUGGUCCCAGCCUCCUCGCUGGCGCCGGCUGGGCAACAUUCCGAGGGCACCGUCCCCUCGGUAAUGGCGAAUGGAACCCA, the self-cleavage was determined as 0.447.
In the case of GGCCGGCAUGGUCCCAGCCUCCUCGCUGGCGCCGGCUGGGCAACAUUCCGAGGGGACCGUCCCCUGGGUAAUGGCGAAUGGUACCCA, the self-cleavage was 0.485.
Next, GGCCGGCAUGGUCCCGGCCUCCUCGCUGGCGCCGGCUGGGCAACAUUCCGAGGGGACCGUCCCCUCGGUAAUGGCGAAUGGCACCCA: 0.172; GGCCGGCAUGGUCCCAGCCUCCUCGCUGGCGCCGGCUAGGCAACAUUCCGAGGUGACCGUCCCCUCGGUAAUGGCGAAUGGGACCCA: 0.073.
As for GGCCGGCAUGGUCCCAGCCUCCUCGCUGGCGCCGGCUGGGCAACUUUCCGAGGGGACCGUCCCCUCGGUAAUGGCGAAUGGGACCCG, the figure is 0.737; as for GGCCGGCAUGGUCCCAGCCUCCUCGCUGGCGCCGGCUGGGCAACAUUCCGAGGCGACCGUCCCCUCGGUAAUGGCGAAUGGGACCCC, 1.02; as for GGCCGGCAUGGUCCCAGCCUCCUCGCUGGCGCCGGCUGGGCAACAUUCCGGGGGGACCGUCCCCUCGGUAAUGGUGAAUGGGACCCA, 0.217.
Next, GGCCGGCAUGGUCCCAGCAUCCUCGCUGGCGCCGGCUGGGCAACAUUCCGAGGGGACCGUCCCCUCGAUAAUGGCGAAUGGGACCCA: 0.0631.
As for GGCCCGCAUGGUCCCAGCCUCCUCGCUGGCGCCGGCUGGGCAACAUUCCGAGGGGACCGUCCCCUCGGUAAUGGCGAAUGGGACCUA, the self-cleavage was 0.172.
As for GGCCGGCAUGGUCCCAGCCUCCUCGCUGGCGCCGGCUGGGCAACAUUCCGAGGGGACCGUCCCCUCGGUAAUGACAAAUGGGACCCA, the figure is 0.443; as for GGCCGGCAUGGUCCGAGCCUCCUCGCUGGCGCCGGCUGGGCAACAUUCCUAGGGGACCGUCCCCUCGGUAAUGGCGAAUGGGACCCA, 0.598.
Next, GGCCGGCUUGGUCCCAGCCUCCUCGCUGGCGCCGGCUGGGCAACAUUUCGAGGGGACCGUCCCCUCGGUAAUGGCGAAUGGGACCCA: 1.13; GGCCGGCAUGGUCCCAGCCUCCUCGCUGGCGCCGGCGGGGCAACAUUCCGAGGGGACCGUCCCCUCGGUAAUGGCGAAUGGGAGCCA: 0.
Next, GGCCGGCAUGGUCCCAGCCUCCUCGCUGGCGCCGGCUGGGCAACAUUCCGAGGGGACCGUACCCUCGGUAAUGGCGAAUGGGACCAA: 0.897; GGCCGGCAUGGUCCCAGCCUCCUCGCUGGCGCCGGCUGGGCAACAUUCCGAGGGGUCCGUCCCCUCGGUAAUGGCGAAUGGGUCCCA: 0.318.
As to GGCCGGCAUGGUCCCAGCCUCCUCGCUGGCGCCGGCUAGGCAACAUUCCGAGGGGACCGUCCCCUCGGUAAUGGCGAAUGGGACCCU, the self-cleavage was found to be 0.121.
Next, GGGCGGCAUGGUCCCAGCCUCCUCGCUGGCGCCGGCUGGGCAACAUUCCGAGGGGACCGUCCCCUCGCUAAUGGCGAAUGGGACCCA: 0.531.
Next, GGCCGGCAUGGUCCCAGCCUCCUCGCUGGCGCCGGCUGUGCAACAUUCCGAGGGGACCGUCCCCUCGGUAAUUGCGAAUGGGACCCA: 0.211; GGCUGGCAUGGUCCCAGCCUCCUCGCUGGCGCCGGCUGGGCAACAUUCCGAGGGGACCGUCCCCUCGGUAAUGGCGAAGGGGACCCA: 0.185; GGCCGGCAUGGUCCCAGCCUCCUCGCUGGCGCCGGCUGGGGAACAUUCCGAGGGGACCGUACCCUCGGUAAUGGCGAAUGGGACCCA: 0.928.
As for GGCCGGCAUGGUCCCAGCCUCCUCGCUGGCGCCGGCUGGGCAACAUUCCGACGGGACCGUCCCCUCGGUAAUGGCGAAUGGGCCCCA, the figure is 0.475; as for GGCCGGCAUGGUACCAGCCUCCUCGCUGGCGCCGGCUGGGCAACAUUCCGAGGGGACCGUCCCCUCGGGAAUGGCGAAUGGGACCCA, 0.314; as for GGCCGGCAUGGUCCCAGCCUCCUCGCUGGCGCCGGCUGGGCAACAUUCCGAGGGGACCGUGCCCUCGGUAAUGACGAAUGGGACCCA, 0.429.
Take GGCCGGCAUGGUCCCAGCCUCCUCGCUGGCGCCGGCGGGGCAACAUUCCGAGGGGACCGUCCCCUCGGUAAUGUCGAAUGGGACCCA: the self-cleavage was determined as 0.213.
As for GGCCGGCAUGGUCCCAGCCUCCUCGCUGGCGCCGGCUGGGCAACAUUCCGAGGGGGCCGUCCCCUCGGUAAAGGCGAAUGGGACCCA, the figure is 0.643; as for GGCCGGCAUGGUGCCAGCCUCCUCGCUGGCGCCGGCUGGGCAACAUUCCGAGGGGACCGUCCUCUCGGUAAUGGCGAAUGGGACCCA, 0; as for GGCCGGCAUGGUCCCAGGCUCCUCGCUGGCGCCGGCUGGGCAACAUUCCGAGAGGACCGUCCCCUCGGUAAUGGCGAAUGGGACCCA, 0.175.
As for GGCCUGCAUGGUCCCAGCCUCCUCGCUGGCGCCGGCUGGGCAACCUUCCGAGGGGACCGUCCCCUCGGUAAUGGCGAAUGGGACCCA, the figure is 0.0875; as for GGCCGGCAUGGCCCCAGCCUCCUCGCUGGCGCCGGCUGGGCAACAUUCCGAGGGGACCGUCCCCUCGGUAAUGGCGAAUGGUACCCA, 0.104.
As for GGCCGGCAUGGUCCCAGCCUCCUCGCUGGCGCCGGCUGGGCAACCUUCCGAGGGGACCGUCCCCUCGGUAAUGGCGAACGGGACCCA, the figure is 0.0791.
For the variant GGCCGGCAUGGUCCCAGCCUCCUCUCUGGCGCCGGCUGGGCAACAUUCCGAGGGGACCGUCCCCUCGGUAAUGGCGAUUGGGACCCA, the self-cleavage turned out to be 0.0831.
Next, GUCCGGCAUGGUCCCAGCCUCCUCGCUGGCGCGGGCUGGGCAACAUUCCGAGGGGACCGUCCCCUCGGUAAUGGCGAAUGGGACCCA: 0.00889; GGCCGGCAUGGUCCCAGCCUCCCCGCUGGCGCCGGCUGGGCAACAUUCCGAGGGGACCGUCCCCUCGGUAAUGGCAAAUGGGACCCA: 1.22; GGCCGGCAUGGUCCCAGCCUCCUCGCUGGCGCCGGCUAGGCAACAUUCCGAAGGGACCGUCCCCUCGGUAAUGGCGAAUGGGACCCA: 0.173.
Turning to GGCCGGCAUGGUCCCAGCCUCCUCGCUGGCGCCGGCUGGGCAAUAUUCCGAGGGGACCGUCCCCUCGGUAAUGGCGAAUGGGACCCC, the self-cleavage turned out to be 0.618.
Consider GCCCGGCAUGGUCCCAGCCUCCUCGCUGGCGCCGGCUGGGCAACAUUCCGAGGGGACCGUCCCCUCGGUAAUGGCGAAUGGGGCCCA, for which the self-cleavage was 0.132.
Next, GGCCGGCAUGCUCCCAGCCUCCUCGCUGGCGCCGUCUGGGCAACAUUCCGAGGGGACCGUCCCCUCGGUAAUGGCGAAUGGGACCCA: 0.271; GGCCGGCAUGGUCCCAGCCUCCUCGCUGGCGCCGGCUGGGCUACAUUCCGAGGGGACCGUCCCCUCGGUAAUGGAGAAUGGGACCCA: 0.0405; GGCCGGCAUGGUCCCAGCCUCCUCGCUGGCGCUGGCUGGGCAACAUUCCGAGGGGUCCGUCCCCUCGGUAAUGGCGAAUGGGACCCA: 0.758.
Next, GGCCGGCAUGGUCCCGGCCUCCUCGCUGGCGCCGGCUGGGCAACAUUCCGAGGGGACCGUCCCAUCGGUAAUGGCGAAUGGGACCCA: 0.782; GGCCGGCAUGGUCCCAGCCUCCUCGCUGGCGCCGGCUGGGGAACAUUCCGAGGGGACCGUCCCCUCGCUAAUGGCGAAUGGGACCCA: 0.483.
As for GGCCGGCAUGGUGCCAGCCUCCUCGCUGGCGCCGGCUGGGCAACAUUCCGAGGGGGCCGUCCCCUCGGUAAUGGCGAAUGGGACCCA, the figure is 0.0536.
For the variant GGCCGGCAUGGUCCCAGCCUCCUCGCUGGCGCCUGCUGGUCAACAUUCCGAGGGGACCGUCCCCUCGGUAAUGGCGAAUGGGACCCA, the self-cleavage is 0.0882.
Next, GGCCGGCAUGGUCCCAGCCUCCUCGCUGGCGCCUGCUGUGCAACAUUCCGAGGGGACCGUCCCCUCGGUAAUGGCGAAUGGGACCCA: 0.115; GGCCGGCGUGGUCCCAGCCUCCUCGCUGGCGCCGACUGGGCAACAUUCCGAGGGGACCGUCCCCUCGGUAAUGGCGAAUGGGACCCA: 0.332; GGCCGGCAUGGUCCCAGCCUCCUCGCUGGCGACGGCUGGGCAACACUCCGAGGGGACCGUCCCCUCGGUAAUGGCGAAUGGGACCCA: 0.128.
As for GGCCGGCAUGGUCCCAGCCUCCUCGCUGGCGCCGGCUGGGCAACAUUCCGAGGGGACCGUCCCCUUGGUAAUGGCGAAUGGGACCUA, the figure is 1.15.
As for GGCCGGCAUGGUCCCAGCCUCCUCGCUGGCGCCGGCUGGGCAACAUUCCCAGGGGACCGUCCCCUCGGUAAUGGCGAAUGGCACCCA, the figure is 0.383; as for GGCCGGCAUGUUCCCAGCCUCCUCGCUGGCGCCGGCUGGGCAACAUUCCGAGGGGACCGUCCCCUCGGUAAUGGCGAUUGGGACCCA, 0.0755; as for GGCCGGCAUGGUCCCAGCCUCCUCGCUGGCGGCGGCUGGGCAACAUUCCGAGGGGACCGUCCCCUCCGUAAUGGCGAAUGGGACCCA, 0.149.
In the case of GGCCGGCAUGGUCCCAGCUUCCUCGCUGGCGCCGGCUGGGCAACAUUCCGAGGGUACCGUCCCCUCGGUAAUGGCGAAUGGGACCCA, the self-cleavage was found to be 0.0573.
As for GGCCGGCAUGGUCCCAGCCUCCUCGCUGGCGCCGGCUGGGCAACAUUCCGGGGGGCCCGUCCCCUCGGUAAUGGCGAAUGGGACCCA, the figure is 0.733; as for GGCCGGCAUGGUCCCAGCCUCCUCGCUGGCGCCGGCUGGGCAACAUUCCGAGGGGAAUGUCCCCUCGGUAAUGGCGAAUGGGACCCA, 1.05.
As for GGCCGGCUUGGUCCCAGCCUCCUCGCUGGCGACGGCUGGGCAACAUUCCGAGGGGACCGUCCCCUCGGUAAUGGCGAAUGGGACCCA, the figure is 0.
Next, GGCCGGCAUAGUCCCAGCCUCCUCGCAGGCGCCGGCUGGGCAACAUUCCGAGGGGACCGUCCCCUCGGUAAUGGCGAAUGGGACCCA: 0.587.
